Earlier results in article PMC3000922.

Molecular target: integrin β3 cytoplasmic tail (Homo sapiens) (UniProt P05106)
Assay: SPR

UniProt P05106, sequence (P05106 742-788): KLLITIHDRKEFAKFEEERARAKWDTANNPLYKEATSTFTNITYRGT

integrin αIIb cytoplasmic tail (from UniProt P08514)
Kd: 7 µM
